Laboratory results reported in the Immune Epitope Database (IEDB).

Assays:
HLA-A*11:01 [1] = experiment: IEDB peptide-MHC binding, purified MHC/competitive/fluorescence; ≥ and ≤ were set here for values at or beyond the usual limits of such assays; settings: source organism: Sudan ebolavirus
HLA-A*31:01 = experiment: IEDB peptide-MHC binding, purified MHC/competitive/radioactivity; filed as Kd, often an IC50 or EC50 that approximates it; ≥ and ≤ were set here for values at or beyond the usual limits of such assays
HLA-A*03:01 [2] = experiment: as above
HLA-A*68:02 = experiment: as above
HLA-B*54:01 = experiment: as above
HLA-A*02:06 = experiment: as above
HLA-B*53:01 = experiment: as above
HLA-B*07:02 = experiment: as above
HLA-A*02:01 [3] = experiment: as above
HLA-A*02:02 = experiment: as above
HLA-A*11:01 [4] = experiment: as above
HLA-A*02:03 = experiment: as above
HLA-B*35:01 = experiment: as above
HLA-B*51:01 [5] = experiment: as above
HLA-A*33:01 = experiment: as above
HLA-A*68:01 = experiment: as above
HLA-A*03:01 [6] = experiment: IEDB peptide-MHC binding, purified MHC/competitive/fluorescence; filed as Kd, often an IC50 or EC50 that approximates it; ≥ and ≤ were set here for values at or beyond the usual limits of such assays
HLA-A*02:12 = experiment: IEDB peptide-MHC binding, purified MHC/direct/fluorescence; filed as Kd, often an IC50 or EC50 that approximates it; ≥ and ≤ were set here for values at or beyond the usual limits of such assays; settings: source organism: Ravn virus - Ravn, Kenya, 1987
HLA-A*02:01 [7] = experiment: as above; settings: source organism: Ebola virus - Mayinga, Zaire, 1976
HLA-A*69:01 [8] = experiment: as above; settings: source organism: Ebola virus - Mayinga, Zaire, 1976
HLA-B*27:05 = experiment: as above; settings: source organism: Reston ebolavirus - Reston
HLA-B*39:01 = experiment: IEDB peptide-MHC binding, purified MHC/competitive/fluorescence; filed as Kd, often an IC50 or EC50 that approximates it; ≥ and ≤ were set here for values at or beyond the usual limits of such assays
HLA-B*46:01 = experiment: as above
HLA-A*26:01 = experiment: as above
HLA-B*57:01 = experiment: as above
HLA-A*02:01 [9] = experiment: as above
HLA-B*15:01 = experiment: as above
HLA-A*69:01 [10] = experiment: as above
HLA-B*51:01 [11] = experiment: as above
HLA-B*15:17 = experiment: as above
HLA-B*18:01 [12] = experiment: as above
HLA-B*08:01 = experiment: IEDB peptide-MHC binding, purified MHC/competitive/radioactivity; filed as Kd, often an IC50 or EC50 that approximates it; ≥ and ≤ were set here for values at or beyond the usual limits of such assays; settings: source organism: Hepatitis C virus (isolate 1)
HLA-B*44:02 [13] = experiment: as above; settings: source organism: Hepatitis C virus (isolate 1)
HLA-B*40:02 = experiment: as above; settings: source organism: Hepatitis C virus (isolate 1)
HLA-B*40:01 [14] = experiment: as above; settings: source organism: Hepatitis C virus (isolate 1)
HLA-B*44:03 = experiment: as above; settings: source organism: Hepatitis C virus (isolate 1)
HLA-B*18:01 [15] = experiment: as above; settings: source organism: Hepatitis C virus (isolate 1)
HLA-B*27:03 = experiment: IEDB peptide-MHC binding, purified MHC/competitive/fluorescence; filed as Kd, often an IC50 or EC50 that approximates it; ≥ and ≤ were set here for values at or beyond the usual limits of such assays; settings: source organism: Homo sapiens
HLA-B*44:02 [16] = experiment: IEDB peptide-MHC binding, purified MHC/direct/fluorescence; filed as Kd, often an IC50 or EC50 that approximates it; ≥ and ≤ were set here for values at or beyond the usual limits of such assays; settings: source organism: Influenza A virus (A/camel/Mongolia/1982(H1N1))
HLA-B*40:01 [17] = experiment: as above; settings: source organism: Influenza A virus (A/camel/Mongolia/1982(H1N1))
HLA-B*18:01 [18] = experiment: as above; settings: source organism: Influenza A virus (A/camel/Mongolia/1982(H1N1))
[19] = source organism: Vaccinia virus WR
[20] = source organism: Reston ebolavirus - Reston (1989)
[21] = source organism: Hepatitis C virus (isolate 1)
[22] = source organism: Triticum aestivum

Sequence: NCYNLEIKK
- IC50 (HLA-A*11:01 [1]): ≥ 72.4 µM

Sequence: KQYIVATLMK
- Kd (HLA-A*31:01; [19]): 0.00824 µM
- Kd (HLA-A*03:01 [2]; [19]): 0.0056 µM
- Kd (HLA-A*68:02; [19]): ≥ 49 µM
- Kd (HLA-B*54:01; [19]): 13.7 µM
- Kd (HLA-A*02:06; [19]): 11.4 µM
- Kd (HLA-B*53:01; [19]): ≥ 69.9 µM
- Kd (HLA-B*07:02; [19]): ≥ 69.6 µM
- Kd (HLA-A*02:01 [3]; [19]): 11.2 µM
- Kd (HLA-A*02:02; [19]): 10.6 µM
- Kd (HLA-A*11:01 [4]; [19]): 0.00378 µM
- Kd (HLA-A*02:03; [19]): 9.86 µM
- Kd (HLA-B*35:01; [19]): 18.7 µM
- Kd (HLA-B*51:01 [5]; [19]): ≥ 35 µM
- Kd (HLA-A*33:01; [19]): 1.15 µM
- Kd (HLA-A*68:01; [19]): 1.34 µM

Sequence: IPYLRNYMVI
- Kd (HLA-A*31:01; [19]): ≥ 37 µM
- Kd (HLA-A*03:01 [2]; [19]): 0.158 µM
- Kd (HLA-A*68:02; [19]): 15.5 µM
- Kd (HLA-B*54:01; [19]): 0.829 µM
- Kd (HLA-A*02:06; [19]): ≥ 69.8 µM
- Kd (HLA-B*53:01; [19]): 0.895 µM
- Kd (HLA-B*07:02; [19]): 0.323 µM
- Kd (HLA-A*02:01 [3]; [19]): ≥ 69.4 µM
- Kd (HLA-A*02:02; [19]): ≥ 70 µM
- Kd (HLA-A*11:01 [4]; [19]): 1.02 µM
- Kd (HLA-A*02:03; [19]): ≥ 70.4 µM
- Kd (HLA-B*35:01; [19]): ≥ 43.9 µM
- Kd (HLA-B*51:01 [5]; [19]): ≥ 25 µM
- Kd (HLA-A*33:01; [19]): 15.5 µM
- Kd (HLA-A*68:01; [19]): ≥ 21.4 µM

Sequence: KIEAPLLLH
- Kd (HLA-A*03:01 [6]; source organism: Escherichia coli str. K-12 substr. MG1655): 0.116 µM

Sequence: LLADGLAKA
- Kd (HLA-A*02:12): 0.004 µM
- Kd (HLA-A*02:01 [7]): 0.0257 µM
- Kd (HLA-A*69:01 [8]): 0.848 µM

Sequence: GRYNLVPPK
- Kd (HLA-B*27:05): 0.0976 µM
- Kd (HLA-B*39:01; [20]): ≥ 20 µM
- Kd (HLA-B*46:01; [20]): ≥ 20 µM
- Kd (HLA-A*26:01; [20]): ≥ 20 µM
- Kd (HLA-B*57:01; [20]): ≥ 20 µM
- Kd (HLA-A*02:01 [9]; [20]): ≥ 20 µM
- Kd (HLA-B*15:01; [20]): ≥ 20 µM
- Kd (HLA-A*69:01 [10]; [20]): ≥ 20 µM
- Kd (HLA-B*51:01 [11]; [20]): ≥ 20 µM
- Kd (HLA-B*15:17; [20]): ≥ 20 µM
- Kd (HLA-B*18:01 [12]; [20]): ≥ 20 µM

Sequence: ATDALMTGY
- Kd (HLA-A*31:01; [21]): ≥ 72.3 µM
- Kd (HLA-A*03:01 [2]; [21]): 3.32 µM
- Kd (HLA-A*68:02; [21]): ≥ 69.8 µM
- Kd (HLA-B*54:01; [21]): ≥ 63.1 µM
- Kd (HLA-A*02:06; [21]): 5.65 µM
- Kd (HLA-B*53:01; [21]): ≥ 78.2 µM
- Kd (HLA-B*08:01): ≥ 64.7 µM
- Kd (HLA-B*44:02 [13]): ≥ 78 µM
- Kd (HLA-B*07:02; [21]): ≥ 32.9 µM
- Kd (HLA-A*02:01 [3]; [21]): 1.45 µM
- Kd (HLA-A*02:02; [21]): 1.58 µM
- Kd (HLA-B*40:02): ≥ 77.3 µM
- Kd (HLA-A*11:01 [4]; [21]): 0.0196 µM
- Kd (HLA-B*40:01 [14]): ≥ 76.2 µM
- Kd (HLA-A*02:03; [21]): 5.92 µM
- Kd (HLA-B*35:01; [21]): ≥ 36.4 µM
- Kd (HLA-B*51:01 [5]; [21]): ≥ 77.5 µM
- Kd (HLA-B*44:03): ≥ 78.2 µM
- Kd (HLA-B*18:01 [15]): ≥ 77.5 µM
- Kd (HLA-A*33:01; [21]): ≥ 77.7 µM
- Kd (HLA-A*68:01; [21]): ≥ 77.7 µM

Sequence: RLCRFRKSK
- Kd (HLA-A*03:01 [6]; source organism: Yersinia pestis Nepal516): 0.121 µM

Sequence: ISIIVLFQR
- Kd (HLA-A*31:01; [19]): 0.00112 µM
- Kd (HLA-A*03:01 [2]; [19]): 0.689 µM
- Kd (HLA-A*68:02; [19]): 8.93 µM
- Kd (HLA-B*54:01; [19]): 7.68 µM
- Kd (HLA-A*02:06; [19]): 9.07 µM
- Kd (HLA-B*53:01; [19]): ≥ 21.5 µM
- Kd (HLA-B*07:02; [19]): 2.22 µM
- Kd (HLA-A*02:01 [3]; [19]): 2.4 µM
- Kd (HLA-A*02:02; [19]): 6.72 µM
- Kd (HLA-A*11:01 [4]; [19]): 0.93 µM
- Kd (HLA-A*02:03; [19]): 9.05 µM
- Kd (HLA-B*35:01; [19]): ≥ 43.4 µM
- Kd (HLA-B*51:01 [5]; [19]): ≥ 21 µM
- Kd (HLA-A*33:01; [19]): 0.252 µM
- Kd (HLA-A*68:01; [19]): 0.00326 µM

Sequence: YSDNEMLTH
- Kd (HLA-B*39:01; source organism: Homo sapiens): ≥ 20 µM
- Kd (HLA-B*46:01; source organism: Homo sapiens): ≥ 20 µM
- Kd (HLA-B*27:03): ≥ 20 µM
- Kd (HLA-A*26:01; source organism: Homo sapiens): ≥ 20 µM
- Kd (HLA-B*57:01; source organism: Homo sapiens): ≥ 20 µM
- Kd (HLA-A*02:01 [9]; source organism: Homo sapiens): ≥ 20 µM
- Kd (HLA-B*15:01; source organism: Homo sapiens): ≥ 20 µM
- Kd (HLA-A*69:01 [10]; source organism: Homo sapiens): ≥ 20 µM
- Kd (HLA-B*51:01 [11]; source organism: Homo sapiens): ≥ 20 µM
- Kd (HLA-B*15:17; source organism: Homo sapiens): ≥ 20 µM
- Kd (HLA-B*18:01 [12]; source organism: Homo sapiens): ≥ 20 µM

Sequence: QPYPQPQPQY
- Kd (HLA-B*54:01; [22]): ≥ 69.9 µM
- Kd (HLA-B*53:01; [22]): 1.62 µM
- Kd (HLA-B*07:02; [22]): ≥ 69.6 µM
- Kd (HLA-B*35:01; [22]): 0.048 µM
- Kd (HLA-B*51:01 [5]; [22]): 10.4 µM

Sequence: FPSTQRDYY
- Kd (HLA-B*54:01; [19]): 3.94 µM
- Kd (HLA-B*53:01; [19]): 0.00115 µM
- Kd (HLA-B*07:02; [19]): ≥ 77.5 µM
- Kd (HLA-B*35:01; [19]): 0.00108 µM
- Kd (HLA-B*51:01 [5]; [19]): ≥ 77.5 µM

Sequence: MEYDAVATT
- Kd (HLA-B*44:02 [16]): ≥ 20 µM
- Kd (HLA-B*40:01 [17]): 0.707 µM
- Kd (HLA-B*18:01 [18]): ≤ 0.001 µM

Sequence: YPTNDIPSLF
- Kd (HLA-B*54:01; [19]): 0.473 µM
- Kd (HLA-B*53:01; [19]): 0.00767 µM
- Kd (HLA-B*07:02; [19]): 1.97 µM
- Kd (HLA-B*35:01; [19]): 0.00863 µM
- Kd (HLA-B*51:01 [5]; [19]): 4.27 µM
